Molecular target: T1, phiC31 integrase WT (Streptomyces phage phiC31, UniProt Q38194 1-613)
T1 sequence: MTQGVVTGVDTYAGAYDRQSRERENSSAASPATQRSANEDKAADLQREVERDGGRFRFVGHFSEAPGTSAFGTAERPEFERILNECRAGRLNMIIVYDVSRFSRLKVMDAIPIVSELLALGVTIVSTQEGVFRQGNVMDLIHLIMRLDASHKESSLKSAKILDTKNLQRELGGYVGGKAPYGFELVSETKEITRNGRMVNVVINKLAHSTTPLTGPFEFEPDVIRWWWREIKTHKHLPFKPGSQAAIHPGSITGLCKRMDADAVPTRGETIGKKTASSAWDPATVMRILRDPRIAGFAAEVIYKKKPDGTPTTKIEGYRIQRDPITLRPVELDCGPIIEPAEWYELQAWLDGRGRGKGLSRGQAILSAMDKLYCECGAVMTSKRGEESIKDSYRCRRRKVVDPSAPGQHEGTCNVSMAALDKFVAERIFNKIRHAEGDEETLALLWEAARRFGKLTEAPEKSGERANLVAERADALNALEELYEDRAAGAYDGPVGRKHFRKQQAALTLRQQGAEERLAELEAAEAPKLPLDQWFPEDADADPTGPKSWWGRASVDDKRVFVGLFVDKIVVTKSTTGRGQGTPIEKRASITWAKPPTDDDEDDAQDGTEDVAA
Assay: EMSA; complexes I, II, III; reference; competed by excess cold attB; 50 ng/ul Poly (competitor (so in the source)), 0.05% NP-40, 50 mM KCl, 5 mM MgCl2, 10 mM EDTA, 20 ul, 0.4 ng (16 fmol) probe; 30 min at room temperature (Methods) or 30 C; pH not stated; synapsis 2 h at 30 C
Conditions: protein: recombinant; tags: C-terminal His (pET22b); chain copies: 2; label: biotin, double-strand end-labeled; blunt

B1: attB 41 bp (dsDNA)
DNA 1: CGGGTGCCAGGGCGTGCCCTTGGGCTCCCCGGGCGCGTACT
DNA 2: AGTACGCGCCCGGGGAGCCCAAGGGCACGCCCTGGCACCCG
For B1, the binding signal was 100 % of WT.

— publication PMC2810336, “Mutational Analysis of Highly Conserved Residues in the Phage PhiC31 Integrase Reveals Key Amino Acids Necessary for the DNA Recombination”
